For assay [1], the target named is extracellular domain of CLEC12A (amino acids 75 to 275) coupled to a His-tag (Sino Biological, cat.no. 11896-H07H) (UniProt Q5QGZ9). Description: ELISA, extracellular domain of CLEC12A coated at 2 µg/ml. For orientation: In an ELISA, binding on a coated surface is turned into a signal by an enzyme label.
For assay [2], the target named is CLEC12A expressed on cells (CLEC12A-transfected CHO cells; HL60 cells) (UniProt Q5QGZ9). Description: flow cytometry on HL60 cells. For orientation: In flow cytometry, cells or beads pass a laser one at a time.
The target is the same in assay [3]. Kind of assay: flow cytometry on CLEC12A-transfected CHO cells.

Chain of CLEC12A expressed on cells (CLEC12A-transfected CHO cells; HL60 cells) (Q5QGZ9 whole entry): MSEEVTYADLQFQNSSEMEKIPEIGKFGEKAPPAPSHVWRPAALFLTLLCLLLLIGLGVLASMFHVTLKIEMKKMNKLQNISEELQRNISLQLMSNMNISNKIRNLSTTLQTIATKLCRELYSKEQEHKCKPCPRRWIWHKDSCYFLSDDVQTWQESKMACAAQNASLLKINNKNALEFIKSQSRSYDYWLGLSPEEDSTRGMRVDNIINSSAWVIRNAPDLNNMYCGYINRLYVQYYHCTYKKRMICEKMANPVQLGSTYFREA
Chain of extracellular domain of CLEC12A (amino acids 75 to 275) coupled to a His-tag (Sino Biological, cat.no. 11896-H07H) (Q5QGZ9 65-265 limits assumed): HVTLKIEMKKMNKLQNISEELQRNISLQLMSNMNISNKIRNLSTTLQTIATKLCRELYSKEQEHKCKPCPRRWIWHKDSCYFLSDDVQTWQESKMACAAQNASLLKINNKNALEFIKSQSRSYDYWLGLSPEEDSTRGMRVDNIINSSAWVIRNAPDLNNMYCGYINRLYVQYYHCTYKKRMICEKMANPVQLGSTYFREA

The substance “irrelevant IgG1 isotype control mAb (antibody)” gave an optical density in assay [1] of 0.127. For the same substance, the mean fluorescent intensity was found to be 116 in assay [2] and 289 in assay [3].
